# Patent publication US20230355720A1, “PHARMACEUTICAL COMPOSITION FOR PREVENTING OR TREATING BONE DISEASES, COMPRISING TRIPLE AGONIST OR CONJUGATE THEREOF HAVING ACTIVITY WITH RESPECT TO ALL OF GLUCAGON, GLP-1 AND GLP RECEPTORS” (HANMI PHARM. CO., LTD., priority 2020, published 2023)
# Bridge positions count the residues as written; N and C are the ends. Square brackets hold non-standard residues; d marks the D form. Ends that are not written are not given here. * marks the point of attachment. Acetyl(2-(4-imidazolyl)) = O=C(Cc1c[nH]cn1)*; Aib = CC(C)(N)C(=O)O
# Molecular target: human GLP-1 receptor (human, UniProt P43220 24-463)
# Assay: cell-based or functional assay
row,Binder,"In vitro activity (%) compared with native peptide, vs GLP-1 [%]"
1,Y[Aib]QGTFTSDYSKCLDEKAAKEFVQWLLDHHPSSGQPPPS (bridge 16-20) [triple agonist of SEQ ID NO: 68],27.9
2,Y[Aib]QGTFTSDCSKYLDERAAKDFVQWLLDHHPSSGQPPPS (bridge 16-20) [triple agonist of SEQ ID NO: 72],11.5
3,Y[Aib]QGTFTSDYSKYLDECAAKDFVQWLLDHHPSSGQPPPS (bridge 16-20) [triple agonist of SEQ ID NO: 67],28.5
4,Y[Aib]QGTFTSDYSKCLDEKRAKDFVQWLLDHHPSSGQPPPS (bridge 16-20) [triple agonist of SEQ ID NO: 70],15.1
5,Y[Aib]QGTFTSDYSKYLDECRAKDFVQWLLDHHPSSGQPPPS (bridge 16-20) [triple agonist of SEQ ID NO: 66],15.8
6,Y[Aib]QGTFTSDYSKYLDERACKDFVQWLLDHHPSSGQPPPS (bridge 16-20) [triple agonist of SEQ ID NO: 71],90.1
7,Y[Aib]QGTFTSDYSKYLDECAAKEFVQWLLDHHPSSGQPPPS (bridge 16-20) [triple agonist of SEQ ID NO: 64],64.6
8,Y[Aib]QGTFTSDYSKCLDERAAKEFVQWLLDHHPSSGQPPPS (bridge 16-20) [triple agonist of SEQ ID NO: 69],24.3
9,{Acetyl(2-(4-imidazolyl))}-[Aib]QGTFTSDYSKYLDECRAKEFVQWLLDHHPSSGQPPPS (bridge 15-19) [triple agonist of SEQ ID NO: 73],22.6
10,H[Aib]QGTFTSDYSKCLDEKRAKEFVQWLLDHHPSSGQPPPS (bridge 16-20) [triple agonist of SEQ ID NO: 65],95.4
11,[Acetyl(2-(4-imidazolyl))][Aib]QGTFTSDCSKYLDERAAQDFVQWLLDGGPSSGAPPPS (not fully specified) [triple agonist of SEQ ID NO: 63],15.3
12,H[Aib]QGTFTSDVSKYLDGQAAKEFVAWLLKGC [triple agonist of SEQ ID NO: 7],13.7

# Molecular target: human GCG receptor (human, UniProt P47871 26-477)
# Assay: cell-based or functional assay
# Chain of human GCG receptor (P47871 26-477): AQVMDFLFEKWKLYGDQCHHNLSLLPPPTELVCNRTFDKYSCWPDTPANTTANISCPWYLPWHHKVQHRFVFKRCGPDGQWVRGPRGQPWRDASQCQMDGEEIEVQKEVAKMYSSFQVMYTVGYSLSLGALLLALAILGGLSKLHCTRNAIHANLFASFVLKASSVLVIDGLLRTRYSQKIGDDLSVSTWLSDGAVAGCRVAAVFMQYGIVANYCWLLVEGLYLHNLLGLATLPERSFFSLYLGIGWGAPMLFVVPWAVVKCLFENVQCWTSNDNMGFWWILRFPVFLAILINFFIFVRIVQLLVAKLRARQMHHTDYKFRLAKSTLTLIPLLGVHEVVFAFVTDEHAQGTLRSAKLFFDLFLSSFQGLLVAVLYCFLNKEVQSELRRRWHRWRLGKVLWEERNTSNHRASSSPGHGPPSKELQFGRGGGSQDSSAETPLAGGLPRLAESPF
row,Binder,"In vitro activity (%) compared with native peptide, vs Glucagon [%]"
1,Y[Aib]QGTFTSDYSKCLDEKAAKEFVQWLLDHHPSSGQPPPS (bridge 16-20) [triple agonist of SEQ ID NO: 68],8.8
2,Y[Aib]QGTFTSDCSKYLDERAAKDFVQWLLDHHPSSGQPPPS (bridge 16-20) [triple agonist of SEQ ID NO: 72],1
3,Y[Aib]QGTFTSDYSKYLDECAAKDFVQWLLDHHPSSGQPPPS (bridge 16-20) [triple agonist of SEQ ID NO: 67],46.2
4,Y[Aib]QGTFTSDYSKCLDEKRAKDFVQWLLDHHPSSGQPPPS (bridge 16-20) [triple agonist of SEQ ID NO: 70],71.3
5,Y[Aib]QGTFTSDYSKYLDECRAKDFVQWLLDHHPSSGQPPPS (bridge 16-20) [triple agonist of SEQ ID NO: 66],172
6,Y[Aib]QGTFTSDYSKYLDERACKDFVQWLLDHHPSSGQPPPS (bridge 16-20) [triple agonist of SEQ ID NO: 71],12.7
7,Y[Aib]QGTFTSDYSKYLDECAAKEFVQWLLDHHPSSGQPPPS (bridge 16-20) [triple agonist of SEQ ID NO: 64],60.1
8,Y[Aib]QGTFTSDYSKCLDERAAKEFVQWLLDHHPSSGQPPPS (bridge 16-20) [triple agonist of SEQ ID NO: 69],9.6
9,{Acetyl(2-(4-imidazolyl))}-[Aib]QGTFTSDYSKYLDECRAKEFVQWLLDHHPSSGQPPPS (bridge 15-19) [triple agonist of SEQ ID NO: 73],5.4
10,H[Aib]QGTFTSDYSKCLDEKRAKEFVQWLLDHHPSSGQPPPS (bridge 16-20) [triple agonist of SEQ ID NO: 65],25.2
11,[Acetyl(2-(4-imidazolyl))][Aib]QGTFTSDCSKYLDERAAQDFVQWLLDGGPSSGAPPPS (not fully specified) [triple agonist of SEQ ID NO: 63],< 0.1
12,H[Aib]QGTFTSDVSKYLDGQAAKEFVAWLLKGC [triple agonist of SEQ ID NO: 7],< 0.1

# Molecular target: T1, human GIP receptor (human, UniProt P48546 22-466)
# T1 sequence (looked up): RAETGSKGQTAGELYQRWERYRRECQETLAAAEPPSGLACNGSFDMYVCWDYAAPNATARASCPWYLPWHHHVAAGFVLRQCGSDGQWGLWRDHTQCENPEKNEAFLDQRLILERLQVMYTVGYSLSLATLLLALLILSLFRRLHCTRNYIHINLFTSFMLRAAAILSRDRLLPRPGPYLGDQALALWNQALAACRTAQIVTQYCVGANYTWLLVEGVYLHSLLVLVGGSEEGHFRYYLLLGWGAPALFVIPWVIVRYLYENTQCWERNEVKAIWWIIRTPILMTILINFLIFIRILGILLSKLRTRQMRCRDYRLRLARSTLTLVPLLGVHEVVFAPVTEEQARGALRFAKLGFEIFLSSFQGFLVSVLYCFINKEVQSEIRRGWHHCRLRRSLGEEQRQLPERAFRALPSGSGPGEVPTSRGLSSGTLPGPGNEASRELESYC
# Assay: cell-based or functional assay
row,Binder,"In vitro activity (%) compared with native peptide, vs GIP [%]"
1,Y[Aib]QGTFTSDYSKCLDEKAAKEFVQWLLDHHPSSGQPPPS (bridge 16-20) [triple agonist of SEQ ID NO: 68],107
2,Y[Aib]QGTFTSDCSKYLDERAAKDFVQWLLDHHPSSGQPPPS (bridge 16-20) [triple agonist of SEQ ID NO: 72],1.6
3,Y[Aib]QGTFTSDYSKYLDECAAKDFVQWLLDHHPSSGQPPPS (bridge 16-20) [triple agonist of SEQ ID NO: 67],39.8
4,Y[Aib]QGTFTSDYSKCLDEKRAKDFVQWLLDHHPSSGQPPPS (bridge 16-20) [triple agonist of SEQ ID NO: 70],64.4
5,Y[Aib]QGTFTSDYSKYLDECRAKDFVQWLLDHHPSSGQPPPS (bridge 16-20) [triple agonist of SEQ ID NO: 66],17.2
6,Y[Aib]QGTFTSDYSKYLDERACKDFVQWLLDHHPSSGQPPPS (bridge 16-20) [triple agonist of SEQ ID NO: 71],94.7
7,Y[Aib]QGTFTSDYSKYLDECAAKEFVQWLLDHHPSSGQPPPS (bridge 16-20) [triple agonist of SEQ ID NO: 64],92.9
8,Y[Aib]QGTFTSDYSKCLDERAAKEFVQWLLDHHPSSGQPPPS (bridge 16-20) [triple agonist of SEQ ID NO: 69],62.8
9,{Acetyl(2-(4-imidazolyl))}-[Aib]QGTFTSDYSKYLDECRAKEFVQWLLDHHPSSGQPPPS (bridge 15-19) [triple agonist of SEQ ID NO: 73],3
10,H[Aib]QGTFTSDYSKCLDEKRAKEFVQWLLDHHPSSGQPPPS (bridge 16-20) [triple agonist of SEQ ID NO: 65],11.6
11,[Acetyl(2-(4-imidazolyl))][Aib]QGTFTSDCSKYLDERAAQDFVQWLLDGGPSSGAPPPS (not fully specified) [triple agonist of SEQ ID NO: 63],< 0.1
12,H[Aib]QGTFTSDVSKYLDGQAAKEFVAWLLKGC [triple agonist of SEQ ID NO: 7],< 0.1
